Assays:
[1] = target: T1, SS_01 (engineered Phi29 DNA polymerase) (bacteriophage Phi29 (engineered; …, UniProt P03680 1-575, M97K;A484E;K512Y); assay: ITC; 1 mM Mg2+; 10 uM DNA into 5 uM protein; ITC: 1x PBS pH 7.5, 0.01% BSA, 0.05% Tween-20, with no metal, 1 mM MgCl2 or 1 mM CaCl2, 25 C, 5 uM SS_01; EMSA: 20 mM HEPES pH 7.5, 4 mM DTT, 1 mM metal chloride, 30 C 30 min, 100 nM DNA, 10 nM polymerase; conditions: protein: recombinant; 63 bp duplex, 5' overhang 7 nt on the 70-mer template
T1 sequence: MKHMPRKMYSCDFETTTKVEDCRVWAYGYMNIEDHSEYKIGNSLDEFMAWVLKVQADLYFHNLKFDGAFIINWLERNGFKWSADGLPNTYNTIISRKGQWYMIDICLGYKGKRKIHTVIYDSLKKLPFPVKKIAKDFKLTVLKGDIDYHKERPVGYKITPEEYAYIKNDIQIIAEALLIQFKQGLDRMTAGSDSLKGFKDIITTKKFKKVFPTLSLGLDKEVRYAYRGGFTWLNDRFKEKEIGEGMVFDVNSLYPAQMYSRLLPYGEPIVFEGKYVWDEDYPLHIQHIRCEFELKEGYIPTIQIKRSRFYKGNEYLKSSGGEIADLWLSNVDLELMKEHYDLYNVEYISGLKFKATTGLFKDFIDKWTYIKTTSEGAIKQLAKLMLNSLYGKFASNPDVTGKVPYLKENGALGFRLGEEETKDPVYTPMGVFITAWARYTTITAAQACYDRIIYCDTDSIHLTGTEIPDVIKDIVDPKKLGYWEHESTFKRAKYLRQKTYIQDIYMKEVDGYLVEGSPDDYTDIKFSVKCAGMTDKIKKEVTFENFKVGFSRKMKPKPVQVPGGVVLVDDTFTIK

[2] = target: T1, SS_01 (engineered Phi29 DNA polymerase); assay: ITC; no Mg2+; 10 uM DNA into 5 uM protein; ITC: 1x PBS pH 7.5, 0.01% BSA, 0.05% Tween-20, with no metal, 1 mM MgCl2 or 1 mM CaCl2, 25 C, 5 uM SS_01; EMSA: 20 mM HEPES pH 7.5, 4 mM DTT, 1 mM metal chloride, 30 C 30 min, 100 nM DNA, 10 nM polymerase; conditions: protein: recombinant; 63 bp duplex, 5' overhang 7 nt on the 70-mer template
[3] = target: T1, SS_01 (engineered Phi29 DNA polymerase); assay: ITC; 1 mM Ca2+; ITC: 1x PBS pH 7.5, 0.01% BSA, 0.05% Tween-20, with no metal, 1 mM MgCl2 or 1 mM CaCl2, 25 C, 5 uM SS_01; EMSA: 20 mM HEPES pH 7.5, 4 mM DTT, 1 mM metal chloride, 30 C 30 min, 100 nM DNA, 10 nM polymerase; conditions: protein: recombinant; 63 bp duplex, 5' overhang 7 nt on the 70-mer template
[4] = target: T1, SS_01 (engineered Phi29 DNA polymerase); assay: ITC; 1 mM Mg2+ (Mg2+/Ca2+ comparison set); ITC: 1x PBS pH 7.5, 0.01% BSA, 0.05% Tween-20, with no metal, 1 mM MgCl2 or 1 mM CaCl2, 25 C, 5 uM SS_01; EMSA: 20 mM HEPES pH 7.5, 4 mM DTT, 1 mM metal chloride, 30 C 30 min, 100 nM DNA, 10 nM polymerase; conditions: protein: recombinant; 63 bp duplex, 5' overhang 7 nt on the 70-mer template
[5] = target: T1, SS_01 (engineered Phi29 DNA polymerase); assay: ITC; Ca2+; exothermic, smaller heat than Mg2+; ITC: 1x PBS pH 7.5, 0.01% BSA, 0.05% Tween-20, with no metal, 1 mM MgCl2 or 1 mM CaCl2, 25 C, 5 uM SS_01; EMSA: 20 mM HEPES pH 7.5, 4 mM DTT, 1 mM metal chloride, 30 C 30 min, 100 nM DNA, 10 nM polymerase; conditions: protein: recombinant; single strand
[6] = target: T1, SS_01 (engineered Phi29 DNA polymerase); assay: EMSA; 1 mM Mg2+; ITC: 1x PBS pH 7.5, 0.01% BSA, 0.05% Tween-20, with no metal, 1 mM MgCl2 or 1 mM CaCl2, 25 C, 5 uM SS_01; EMSA: 20 mM HEPES pH 7.5, 4 mM DTT, 1 mM metal chloride, 30 C 30 min, 100 nM DNA, 10 nM polymerase; conditions: protein: recombinant; hairpin, self-primed template

B1: 63/70-mer primed template (dsDNA)
DNA 1: TACGCAGCGTACATGCTCGTGACTGGGATAACCGTGCCGTTTGCCGACTTTCGCAGCCGTCCA
DNA 2: AAACCCTTGGACGGCTGCGAAAGTCGGCAAACGGCACGGTTATCCCAGTCACGAGCATGTACGCTGCGTA
modifications: three consecutive phosphorothioates at 3' terminus of 63-mer
Kd [1]: 243 ± 80.5 nM | Kd [2]: 129 ± 9.46 nM | Kd [3]: 317 ± 75.2 nM | Kd [4]: 239 ± 68.2 nM

TCCTAACGAGATTAGTTTTGCTGTT (ssDNA) [unmodified oligonucleotide (non-PS)]
binding result [5]: binds

B2: Seq99A hairpin primed template (structured_DNA)
DNA: TTTTTGCGCTCGAGATCTCCGTAAGGAGATCTCGAGCGCGGGACTACTACTGGGATCATCATAGCCACCTCAGCTGCACGTAAGTGCAGCTGAGGTGGC
binding result [6]: binds
